The results in this text go back to PMC9816786 (2022).

The Kd is a measure of binding affinity in units of concentration. The low end stands for tighter binding, the high end for weaker binding. Broadly, the koff is the rate constant with which the complex falls apart. The low end stands for slow dissociation, the high end for fast dissociation.

Some targets named below: P1.40 D89A; P1.40 D62A; P1.40 T109A; P1.40 E46A; P1.40 E44A; P1.40 F110A; P1.40 R111A; P1.40 R43A.
Assay in all cases: BLI

B1: CHRD (aa 449–693) of human PCSK9, 6xHis-tagged (domain or fragment)
chain: HGAGWQLFCRTVWSAHSGPTRMATAVARCAPDEELLSCSSFSRSGKRRGERMEAQGGKLVCRAHNAFGGEGVYAIARCCLLPQANCSVHTAPPAEASMGTRVHCHQQGHVLTGCSSHWEVEDLGTHKPPVLRPRGQPNQCVGHREASIHASCCHAPGLECKVKEHGIPAPQEQVTVACEEGWTLTGCSALPGTSHVLGAYAVDNTCVVRSRDVSTTGSTSEGAVTAVAICCRSRHLAQASQELQ
modifications: biotinylated where it was immobilised for BLI (site not told)
Regarding B1, the Kd with P1.40 D89A is 2.79 nM; with P1.40 D62A it was 1.26 nM; with P1.40 T109A it was more than 1000 nM; with P1.40 E46A, 1.22 nM; with P1.40 E44A, 0.477 nM; with P1.40 F110A, more than 1000 nM. For the same molecule, the Kd with P1.40 R111A is 3.49 nM; in the assay with P1.40 R43A, 2.86 nM. The koff with P1.40 D89A is 0.000882 s⁻¹; with P1.40 D62A, 0.000668 s⁻¹; with P1.40 T109A, more than 0.001 s⁻¹; with P1.40 E46A, 0.00064 s⁻¹; with P1.40 E44A, 0.000359 s⁻¹; with P1.40 F110A it was more than 0.001 s⁻¹. Also, the results for the off-rate (koff) with P1.40 R111A and with P1.40 R43A were 0.00147 s⁻¹ and 0.00141 s⁻¹, respectively.
